Source: patent US20250270314A1 (TAVOTEK BIOTECH SUZHOU, published 2025)
Substitutions are numbered along the chain they refer to. Blank lines part the entries; values can stand above or below the binder they belong to.

Key:
[1] = target: T1, human CDH17 on AGS gastric cancer cells and AsPC-1 pancreatic cancer cells (human, UniProt Q12864 23-832); test: flow cytometry on AGS and AsPC-1 cells
T1 construct: Native CDH17 on the surface of cancer cell lines; also called CDH17 expressing AGS cells; CDH17 expressing AsPC-1 pancreatic cancer cells
T1 sequence: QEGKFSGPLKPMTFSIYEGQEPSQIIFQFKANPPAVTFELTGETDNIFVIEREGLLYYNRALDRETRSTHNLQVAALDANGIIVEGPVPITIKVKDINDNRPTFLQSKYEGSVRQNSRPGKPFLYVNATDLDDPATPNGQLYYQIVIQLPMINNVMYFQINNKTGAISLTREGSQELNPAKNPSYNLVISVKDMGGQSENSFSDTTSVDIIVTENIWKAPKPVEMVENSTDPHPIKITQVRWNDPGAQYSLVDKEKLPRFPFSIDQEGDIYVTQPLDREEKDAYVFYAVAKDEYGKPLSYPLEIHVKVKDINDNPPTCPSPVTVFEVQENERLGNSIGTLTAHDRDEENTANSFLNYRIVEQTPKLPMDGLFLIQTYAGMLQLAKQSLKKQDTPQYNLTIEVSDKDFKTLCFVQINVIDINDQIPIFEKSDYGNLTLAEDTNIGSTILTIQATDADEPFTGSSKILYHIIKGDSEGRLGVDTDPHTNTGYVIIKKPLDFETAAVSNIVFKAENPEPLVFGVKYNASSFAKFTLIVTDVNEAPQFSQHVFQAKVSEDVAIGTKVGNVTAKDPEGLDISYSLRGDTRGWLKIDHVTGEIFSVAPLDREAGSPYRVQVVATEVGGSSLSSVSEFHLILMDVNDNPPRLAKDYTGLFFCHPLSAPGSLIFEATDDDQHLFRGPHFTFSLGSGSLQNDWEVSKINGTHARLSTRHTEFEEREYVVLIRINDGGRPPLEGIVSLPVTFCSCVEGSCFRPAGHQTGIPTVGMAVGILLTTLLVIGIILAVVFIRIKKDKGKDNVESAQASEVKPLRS

[2] = target: T2, recombinant human CDH17 (R&D systems) (human, UniProt Q12864 23-787); test: ELISA, recombinant human CDH17
T2 construct: Bought recombinant protein coated on the ELISA plate; also called human Cadherin-17
T2 sequence: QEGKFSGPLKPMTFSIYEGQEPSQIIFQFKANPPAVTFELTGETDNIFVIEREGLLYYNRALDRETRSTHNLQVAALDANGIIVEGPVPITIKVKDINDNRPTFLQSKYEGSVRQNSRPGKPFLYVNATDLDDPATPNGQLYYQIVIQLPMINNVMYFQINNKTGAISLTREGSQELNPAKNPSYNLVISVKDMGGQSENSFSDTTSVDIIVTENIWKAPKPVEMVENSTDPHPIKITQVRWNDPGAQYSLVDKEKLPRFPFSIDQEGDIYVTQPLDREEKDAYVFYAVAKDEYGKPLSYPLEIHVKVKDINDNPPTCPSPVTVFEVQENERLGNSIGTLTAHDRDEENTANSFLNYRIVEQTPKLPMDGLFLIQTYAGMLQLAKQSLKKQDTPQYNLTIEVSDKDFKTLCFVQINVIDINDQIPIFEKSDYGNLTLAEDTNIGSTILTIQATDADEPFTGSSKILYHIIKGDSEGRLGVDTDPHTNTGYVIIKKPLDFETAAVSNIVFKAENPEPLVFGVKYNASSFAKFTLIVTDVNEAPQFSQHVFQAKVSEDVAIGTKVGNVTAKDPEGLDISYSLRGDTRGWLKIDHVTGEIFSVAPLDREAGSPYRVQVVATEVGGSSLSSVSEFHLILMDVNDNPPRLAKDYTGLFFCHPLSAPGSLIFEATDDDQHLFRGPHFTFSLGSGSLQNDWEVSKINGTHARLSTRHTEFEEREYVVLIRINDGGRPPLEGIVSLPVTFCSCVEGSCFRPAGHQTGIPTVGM
Experimental: (§1) ELISA-based binding assay was employed to evaluate the binding to CDH17 by anti-CDH17 antibodies. In this assay, 100 μL of […] recombinant human CDH17 (R&D systems) was coated on an ELISA plate. Increasing concentrations of masked and reference mAbs were applied on the plate and their binding to the recombinant human proteins were detected by HRP-conjugated anti-human secondary antibody. […] The expressed anti-CDH17 mAbs had potent binding to CDH17. The anti-CDH17 were tested for binding to AGS gastric cancer cells and AsPC-1 pancreatic cancer cells.

[3] = target: T2, recombinant human CDH17 (R&D systems); test: ELISA, plate coated with recombinant human CDH17
Experimental: as §1

- binding result [1]: binds
- binding result [2]: binds
B1: VHO v358 (VHH)
VHH: EVQLLESGGGLVQPGGSLRLSCAASGFTFSDYWMSWVRQAPGKGLEWVSNISGDGGSTYYADSVKGRFTISRDNSKNTLYLQMNSLRAEDTAVYYCAKTTDLLQGAFDYWGQGTLVTVSS
notes: Variable-heavy-only (VHO) single domain; also called TS00358

- binding result [3]: binds
B2: CDH17 v5 (antibody, V domains shown)
VH: QVQLVQSGAEVKKPGSSVKVSCKVSGYTFTDHTIHWMKQRPGQGLEWIGYIYPRDVITQYNEKFKGKVTLTADKSTSTAYMELSSLRSEDTAVYLCARWGYFYGSRSYYFDYWGQGTTVTVSS
VL: DIVMTQSQKFMSTTVGDRVNITCKASQNVGTAVAWYQQKPGQSPKLLIYSASNRYTGVPDRFTGSGSGTDFTLTITNMQSKDLADYFCQQYSSYPWTFGGGTKLEIK
notes: typical human IgG heavy and light chain bands on SDS-PAGE

- binding result [3]: binds
B3: CDH17 v6 (antibody, V domains shown)
VH: QVQLQQSDAELVKPGASVKISCKVSGYTFTDHTIHWMKQRPEQGLEWIGYIYPRDVITQYNEKFKGKATLTADKSSSTAYMQLNSLTSEDSAVYLCARWGYFYGSRSYYFDYWGQGTTLTVSS
VL: B2 VL
notes: as for B2

- binding result [1]: binds
- binding result [2]: binds
B4: VHO v366 (VHH)
VHH: EVQLLESGGGLVQPGGSLRLSCAASGFTFSDYWMSWVRQAPGKGLEWVSNINGDGGSTYYADSVKGRFTISRDNSKNTLYLQMNSLRAEDTAVYYCAKTSTFYKQDKFDYWGQGTLVTVSS
notes: Variable-heavy-only (VHO) single domain; also called TS00366

- binding result [1]: binds
- binding result [2]: binds
B5: VHO v364 (VHH)
VHH: EVQLLESGGGLVQPGGSLRLSCAASGFTFSDYWMSWVRQAPGKGLEWVSNISGSGGSTYYADSVKGRFTISRDNSKNTLYLQMNSLRAEDTAVYYCAKTSDWLLHDADLHFDYWGQGTLVTVSS
notes: Variable-heavy-only (VHO) single domain; also called TS00364; CDH17-VHO364

- binding result [1]: binds
- binding result [2]: binds
B6: VHO v363 (VHH)
VHH: B5 VHH with D31T, G53Q, S54D, S100T, L104Q, H105D, D106K, A107V, L109E, H110A
notes: Variable-heavy-only (VHO) single domain; also called TS00363
